Laboratory results as given in article PMC2821902 (Biochemistry, 2009).
Like-named read-outs stand apart in the source and are kept apart here.

Key:
[1] = biological target: Dynein light chain LC8 (wild type) (UniProt Q24117); assay: NMR; conditions: cited from earlier work
[2] = biological target: the molecule itself
[3] = biological target: the molecule itself; assay: NMR HSQC peak intensities of monomer and dimer signals in slow exchange
[4] = biological target: the molecule itself; assay: NMR NZ-exchange spectroscopy
[5] = biological target: the molecule itself; assay: NMR NZ-exchange spectroscopy; remark: listed apart in the source
[6] = biological target: the molecule itself; remark: listed apart in the source

In the case of Dynein light chain LC8 (wild type), the KD ([1]; pH high pH (limit (so in the source))) is given as < 1 µM, the pKa, His55 of LC8 (dimer) ([1]; pH) is given as < 4.5 pH units and the pKa, His55 of LC8 (monomer) ([1]; pH) is given as 6.5 pH units.

B1: LC8 Ser88Glu mutant (phosphomimetic) (natural protein)
chain: MSDRKAVIKNADMSEEMQQDAVDCATQALEKYNIEKDIAAYIKKEFDKKYNPTWHCIVGRNFGSYVTHETRHFIYFYLGQVAILLFKEG
For B1, the “KD of the protonation state His55+/His55+, Glu88/Glu88 (from the model)” value [2] was 25000 µM, the “KD of the protonation state His55+/His55+, Glu88/Glu88− (from the model)” value [2] was 110000 µM and the “KD of the protonation state His55+/His55+, Glu88−/Glu88− (from the model)” value [2] was 1.8e+07 mM. The “KD of the protonation state His55/His55+, Glu88/Glu88 (from the model)” value [2] was 17 µM, the “KD of the protonation state His55/His55+, Glu88/Glu88− (from the model)” value [2] was 6800 µM and the “KD of the protonation state His55/His55+, Glu88−/Glu88− (from the model)” value [2] was 12000 mM. The “KD of the protonation state His55/His55, Glu88/Glu88 (from the model)” value [2] was 0.071 µM, the “KD of the protonation state His55/His55, Glu88/Glu88− (from the model)” value [2] was 28 µM and the Kd [3] was 930 µM. It also gave a koff [4] of 1.9 to 5.7 s⁻¹ and a kon [4] of 1200 to 3000 M⁻¹ s⁻¹.

B2: wild-type dynein light chain LC8 (natural protein)
chain: MSDRKAVIKNADMSEEMQQDAVDCATQALEKYNIEKDIAAYIKKEFDKKYNPTWHCIVGRNFGSYVTHETRHFIYFYLGQVAILLFKSG
With B2 the “KD of the protonation state His55+/His55+ (from the model)” value [2] was 21000 µM, the “KD of the protonation state His55/His55 (from the model)” value [2] was 0.06 µM and the “KD of the protonation state His55/His55+ (from the model)” value [2] was 14 µM. The koff [5] was 0.05 to 0.24 s⁻¹, the kon [5] was 1000 to 3000 M⁻¹ s⁻¹ and the “KD at neutral pH” value [6] was < 0.1 µM.
